# Results reported in article PMC11098746 (2024).
# B1: 56 (protein)
# chain: FLRNKEHANLINSYNDIVEDINIKKEEKSSSEPPFIPIKNKIDNVHTKNNNQYNLHNNKANKAHLTYGTHTSFLQNCAINDCVDVDNKDSEINNIAKEKDDNNNNNGAKQIEEKNKINKADLHRQNELNLQSGKNEQDINKNEKGKQDISNSNAENKKDVKEGVKELEEKKKEEKISDDHKVEENKKSDDHKVEENKKSDDHKVEENKKSDDHKIEEVKKVEEHEEDEEEDKKEKKSENKNKDENKDENDEDNDEISDEDEVDDDVEEDKNENDDIDDDKKETDKTHLEEEENEIIEKEFSDKKKNGKNKDTKKEKSKDTEKEKSKDIEKEKSKDKEKEKSKDKEKEKGKDKEKEKSKDIEKEKEKDKDIEKEKSKDTAKEKEKDKDIEKEKSKDMEKLKNKQNDEKKKDDNEKKKNDKQDIHDDNDDENDMEEIEENDDEEDEDEDMENKKKKKKGKNGNENGNENGAENGNENGNENGNENENKNEAENENENENENENGNENENEKENEKDKNIKEIENVANANKENYEKINKNSEITITKSNIDIYNNNRNNDIDKVNNHIFTNQQKKHNLHNEQNKFNEALNVATNHKNHYEEKKKYESNMFNVDKRMHKNLASMDTILHNLNDKLSHHKDLKNRELKLKFEAMSRIKEYKIYNELIQKSVEILTLRLTKINDELKKLKDISENALQKYINEKGYGLMKHYNFPEYNKLEEEKIMKRSKITWNEKKSHHLYCPMECNKERCYNRPRGPTQCYKLEQIGRNIETICEPFINEHNGACRPDFHHCAIAEPERNKKYSIYATDDVHFVPSQFVTIKGYNLHECLQFLVVKKNSACGPMTIEKNLMESEEILKEPVLSKVLYNEILFENIKISTPGEYNICLAQFYQDPEKDDILSENSANKYKKKKKNDMKVLGIDTIGTLYVLPLHEKQKTG
# modifications: bait human Fc-tagged dimer
# B2: 52 (protein)
# chain: AEEHEITHKTYFDITIDDKPLGRIVFGLYGKVAPKTVENFVSICKGTVVDGKMLHYTNSIFHRIIPNFMAQGGDITNFNGAGGLSIYGKKFEDENFKVNHAKRGLLSMANAGKNTNGAQFFILFIPTPWLDGRHVVFGEVVEGLDKLVHIEAVGTDSGEPLKRVLVKESGELPL
# modifications: bait human Fc-tagged dimer
# B3: 17 (protein)
# chain: ANIDKVNLARNFLFSYIQKNLYYTRSYFNVAQLFSTLQIFLDQFCYPGLGRCIPYINKCLCYDKSKMKPKTAKSCLNNCGVISLCSGYPYGPGYKIIPNEFINNRKVVTCVVSSLQNKLDRTCGYNKKLRFNENKIYCIPYDLLDMNLAGIYCVNNNKEKIFCKGFLRQIYTNLKEYEILDIAYHNFILNNPCNEHIYDDGTNYKGCQDTSISGRKCLHWNSLNMEKVLPYLYLHNYCRNPEGLSYIYCYVDNNGIITREYCKSRSNIIFNNIAYSREKYFHFDITMKNVADFRIKLDNKPCNQRYFVNNHRINEFTYDKRNYAYHNINGEIALTISFKNFAYNTYYDYKLYICACFKYYYTNDLVICSTDNYKVEIGSFLITKAYTDKDTNVFYLNRQYNLAFNINYEIIKNEIYIIKGDYAYECNHLRIIGNDNIHMITNMNILFNYYKNQNFQKIHPPLEPNKKYSYIYSYFDPILDLSSILRKNELFINPQSSNIIKGYQNVDNLNNDGKTNSKSKFAKNKHMLQNGAP
# modifications: bait human Fc-tagged dimer
# B4: 18 (protein)
# chain: KENKNDNFLNGIYKLQNIWRNTALGELDLKKANIENAEGIIEKFNDANKADFNQHPHFRSKLSFLEHKNHKDMGIVTNHQNKDHKKNEYTSEEIIDMKPQLASQEMWRKGENFYMHGATNTNEQNDDEDLFESFHKNHNSNIKINSPCFDLQDKEMCSNNKECFYDDAYKACFQNCALVNEKKCSLYSECKHTPNGCQNEGYLNIQVFGSNLGGDVRACELFESEGSCYLMEKLFKKLSEEKKETSFNCVWISYKHELRSYDDENEPKENNDNIVALENKNKYMYMNNVESIHNNHHLENPYHEDIKHNKHKSFNYHVLSSSVPRQIAKNEKFLSLLQLNLKGKKKEKNKKKKKDDEDDDDIDEEDDDLDIEGKNNEFNADEEENSKDLKNNNIDDNEEDGTTDEDDLFNNKKKKKNNNNNNANNNNNKNKNKQNTNKKNNKIINEFDDDIDEVSEENLLNDEEKKQNKIKNKNINEANNIAENNEIEISSKDLTEQYEDKYNYDKKNNMGTNNNFNNANTFANNKNNLHNKYINHASHTQNEKDILKHNFYGKDNNGAYEIIKVETHICANLNEKPNPSTLLEGALIAENEAQLQKIKKKYKVTDNEICVRPTNSAYVSLIPDKKYYLLGEKIEFKCQEGYKIIGTTNIGVCTGRNIISPNIACESLTNFDDVEKDNIQKMNNIINS
# modifications: bait human Fc-tagged dimer
# B5: 28 (protein)
# chain: GVLSFKFNTIKNLNVHLEIVMYGLFHIYNYKLNFKIVCDNGYYYIFNDCFPCPQGYYNNINIIKTNVDFINKCMKCDKNKATLIEKSSNKADCLCNFGYEYIKNPADPQEFICSPCTRGMYKNTISNKLCDGNACTGNFATSVIGAKNIIESTCFCKPGFYVTYDYRGIEFCKECLLHFYCPGNVIGIQKCPIHNEALQPEKRINFDSLHGCFCKKGYEPINILNINKAGTRDEHYYKLFHNTYADKFKDINPKHICMECDIGYYKDTISFQPCKKCPNQATNKKYGSTSLNDCNTCHSGYYKNINKACSTCLPNHFCVGDLLQKDLDKYSGDAVICPNNAVTKKPYTQNGAFKDCLCIEGYIKNYQESYNINDHCKLVPLNFYKDSISNDLGTPCPVNSITLNVGAKTINECLCNKGYFYNVKKQQCEECPIGFYCPKISSKNNIKKPIKCPKNSASIKKGMYISNNCQCNFGYTKYIHIDNNQALLNNNIIKYDNKKTNKMFYSFLSNNYYNYKNKINYINKAYNNRNLILLRNIQNKNAIYKKKKRKNVLCIRCPPMTYKGTISNDPCEACPLNSRTIESVNNAHIFFCLCNPGYYLHEQMCKPCSFSKLYCTGENIYIISQSLYETALQEIKNIYVSKNNDMYKMILMNLALYDYSQNVNINNNNNNNNNNNIHNNNIYNIYNSINHYNNDNNIFVNPIVNNKLKHHNNIIYPPYNLLNSQVDTIPFLKKKYGNNINIANILDLNSLYKEPIQNNNNLNTILKSFFHKDNENLIYVKYQNFVTCGKNTVIPLGVDSSYTFDDCKCKKGYYLKSKDINNAIKICEPCKTGTFKNYVGDDTFCLHCPPKSTSLEGSIYPTHCFCKGGFFYSKGYCLECLEGALCKGGLNKNVMQRMKFNMENILITEKDHIKPHSNKNYYLDKSVIDVVDVSEWKFIKCPIKGACLEKNKCHKSMNNYLCIECAKGYTNSFMTSLCVKCPNNIANM
# modifications: bait human Fc-tagged dimer
# B6: 66 (protein)
# chain: KIISCVIQKNPILHLWKIYSFQKCPHNYYCEQESLKKKKCPPNSIKTIYDGTINDCLCLPGYYLKGNIQTCIPCEKGSYKNTISNDACIKCPINFATLFETSKSVYDCVCRKGYYFSWNTNIDTNDIEKKNIYNNNINSIYRNKNEIKLIKELEEEYAFNVEKKRKNKHKFILHKKLNNRYRENIHKKQISLKRKIKFLNEQKEINNHLNFLHVNEILNIAFFNDNQNYIYKNKNKQENDANIEINPVSKQTSLHSNNIANKYMRNNFLQINEKLYINNANNNYNEYIHKAQCTKCPRKMFCPGYWLENYENEIHHPPIYCPKGSLILGTTIESTDIHKCICRKGYSINLAIKPNRNKNVNVNDNDNGNNNNNANNNNNNANGNSATLNNNNNMCVMCKEGYYKDVIDNSVCAGLCIEFSTSFKGSISKKQCFCTVGKYMIQDEKDENKCINCAKGSICIGGFKFKSLRELIKNQYYINLNIYDHSIPLPKKGYFATFQINHEDFKWKPLNSLHIEINNYEKGNIIITDKIILNVFHKKLHLINIGEKNKYDQADQGIYIKKNLNNNAFIHNNNNIKYIVEESKHLRDRTMANIPNEPILVNEKLEPIIYKNNFLMIDRIPDFHLCPISNRCMGTSSNLCFKGSEGYLCNNCANSYDVIHFRSQCIKCRKKKTEM
# modifications: bait human Fc-tagged dimer
# B7: 15 (protein)
# chain: MAFFSIFIILNFFMLSLTSSLGNGFLHSSITFSNDFCKGMNLHFLISAEEIDSKFFLNKMLLLILGGSSYMRYSKENYFSVSIYDKKLVYKNIKKIENIQGASYYEQLQSAFKKHIKPSARRTNLYESLKEYYEKYIIGNKNIKKSKNIIIIVKKFTSDDLSEYHENLNRYIKEIRSKDVGIYFFSDDSIYSKNIILNIAESGYNMEVQYPIAHFVSESYRANDLFGVKKFCYQLLHGATCKSYNEWSEWSGPCEFERRQRIIPLKITNIESTNFRSHYDPSCRNVFDYSMSIKEDFRVNCKNSIYECRGICDKGYKFKPYAKSNEIVESYEECNDLPPCTRDQRKNGDHTLYADVILNSLLSESSIQQIRDRDDRALIEKDMP
# modifications: bait human Fc-tagged dimer
# B8: 12 (protein)
# chain: SDTFRVFEDFDVRRKNKIWCCNLNHEKSYFHNKAINTAYKNRVLKESILLNLDLDMKKYKDNIITRKKTPENIYKEIYENNYEMKYDEDIPNNMAEEKRDEKEVIEHLEIDEKNGKQYKSDINKPVSLSHLKQYKNIYVNNNNKINKKKSIDKHLPSYNLERKNNKYLNFLLVDNRNEAYTFMVPMKFYINHEMYNIADEEYNKLMEDNSVDVYLNNILVEYKYENFEIKEGEVDGEVEGEGEVEGEVEGEVKGKVVEGIENNMNEEEKYNKDNKDKENQINSNGQDENTEFQENDNNDAVIMKYT
# modifications: bait human Fc-tagged dimer
# B9: 41 (protein)
# chain: VYNVKTQKNEGIIIDKEGKENDNGNSDRNTPNNNNRLNRMTLNKEMYEKHNKMNNEEDNNKNINYDLSNLKDGMKKKHFGSNSAEDKTNKKSSINSVLEKYQHTKHEEKNLQNLNKNMMTHENDDSMKSIFISEESFESAKNVCQFIVMQNDYFKNFCNIASLVYDIEKLKKNNHKIYEEILSNSYENNNGAKFKLLKEINHAKVFKEMDNTNPKFSILFLYDKFCYGGIPLACSNLMKYDNVFDINEQSETTNKPDDNVNMEEMENYIINQAGMENGFEENVADLTQE
# modifications: bait human Fc-tagged dimer
# B10: 16 (protein)
# chain: NNLDKNKNFIQYKNFKKNKAYKYKNNNNNIIIINSHSHSNSHSNSHSHSNSHSNSHSHSNSHSNSHSHSNSHSHSHSNSHSNSHSHSSTQNSLYHDTNQANFLKPTSFFLYKHHVYFNQKYKKDPNILNKLKVPRNHIFHINKCDLNYYIQNYEFFFFFPDYYEYSHLYIRLDKLFYFQRCGCDTNIKKTKKRNQNIFNNMLGMKEKDTYLQNEICDIYWNYLKDDNTYDKYNFAIINYIKNIIKKMYRYLYIYKVFVLKQFYRIVYYNQGIRNFYYMLFSYIYNKGSIIYNYNQMYFKKHRKKQTIIRSKRFMNEHIKEEDVDYNIVKDEKDKSIQSTEQKSYLKNNAIQYFQCFLDKAMENKNAENELDKWIDPQSKSCYCSEEFAEPCTSEDLVDINNINQIMDNAFCEYNNNDNNNNDNNKNNNNNINNIINIYDNNILGDNVKNIFVALSEYKILQCNDKEKKDIIKKEQLYNYCKYGLNIWDNKNMYDYLNCLNVISYNKKDDKTCIRKCENIKKLCNIVAQFYSFEVCKKYYENNKHTEDIYINNFKYFSDHCKYIDPTNRGLVLCKHKNVECVYSQWSEWSTCSKTCIENEYDTNSARTRTRILLNKFEVPSKSCSFIINEKNNLMDINFCSYLPFCNKNNDMKKKDDERIMPFVISIKEIEKLNTLKYLNNDDNDLLNENYKNYESVHKNNECKVTDMYQYEYAISYNEKNKACSCPNNQAPCYFKDIYNSESWKKSLHILCKHNPHINVITADYIIIDCNMAISIKKKEIAVNTYLAMTFNCHSDIFQYIFCAKNIQSIRTN
# modifications: bait human Fc-tagged dimer
# Molecular target: FGFR4 ectodomain (Homo sapiens, UniProt P22455)
# Assay: AVEXIS normalised luminescence
row,Binder,binding score
1,B1,0.733
2,B2,1.22
3,B3,0.943
4,B4,1
5,B5,0.857
6,B6,0.776
7,B7,0.902
8,B8,0.891
9,B9,1.23
10,B10,1.5
